One molecule from patent CN113735970A (INST MILITARY MEDICINE ACADEMY MILITARY SCIENCES PLA, dated 2021) can be followed below.

The target in one experiment is SARS-CoV-2 WT S-ECD蛋白 (SARS-CoV-2, UniProt P0DTC2 14-1213).
Another experiment concerns the target SARS-CoV-2 WT RBD蛋白 (SARS-CoV-2, UniProt P0DTC2 319-541).

B1: 抗SARS-CoV-2全人源单克隆抗体ZWC6 (antibody, human IgG1, kappa, V domains shown)
VH: EVQLVESGGGVVQPGTSLRLSCAASGFSFSHYVMYWVRQAPGKGLDWVAIISFDGSSQYYADSVKGRFTISRDNSKDTLYLQMHSLRPEDTAVYYCAIHGGTYYYDKNILAWGQGTLVTVSS
VL: AIRMTQSPPTLSLSPGERATLSCRASQSVTNYLVWYQQKPGQAPRLLIYDTFNRATGIPARFSGSGSGTDFTLTISSLEPEDFAVYYCQQRSNWPPTFGQGTKVDIKR
As to B1, in the experiment with SARS-CoV-2 WT S-ECD蛋白, the Kd stood at 1.49 nM, the koff came out at 0.000255 s⁻¹ and the kon was 171000 M⁻¹ s⁻¹. Also, in the experiment with SARS-CoV-2 WT RBD蛋白, the Kd is 0.683 nM, the koff amounted to 0.000365 s⁻¹ and the kon turned out to be 535000 M⁻¹ s⁻¹.

Usually Kd stands for a measure of binding affinity in units of concentration. A higher Kd goes with lower affinity. Usually koff stands for a measure of how fast the partners let go of each other. A higher koff goes with fast dissociation. A word on the kon: it is the second-order rate constant of association. The low end stands for slower complex formation, the high end for faster complex formation.
